Laboratory results: PMC8421139

Experiments:
Experiment in all cases: EMSA
[1] = molecular target: GST-TDRD3 Tudor (UniProt Q9H7E2 555-615)
[2] = molecular target: T1, GST-TDRD3 UBA (UniProt Q9H7E2 193-233)
T1 chain: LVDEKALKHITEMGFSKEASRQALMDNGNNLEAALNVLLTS

[3] = molecular target: TDRD3 E691K (UniProt A0ACI8Q7A3 1-93+Q9H7E2:1-651, E598K;internal_change)

B1: ssDNA probe (R-loop forward oligo) (ssDNA)
DNA: CCTCGCAAACTACTTAGATGTCATCCGCGAGC
[1]
  binding result: no binding
[2]
  binding result: no binding
[3]
  binding result: binds
